Data on 20 sequences can be found in a protein production outcome set (Wang et al. 2014).

This series is described as follows: label from the status in PepcDB records.

Regarding “MSLVENLSLEPQPKRRKIDPEVKESPSRNCSHWFVRNKVCASCNTIVDNYQGRSFDYLYTGIQMSNEALGFTKRLISQTSWLEDKKLHLVLDLDHTLVHTIKVSQLSESEKYITEEVESRKDLRRFNTGFPEESLIKLRSFVHQFLKECNEMFSLYVYTKGGYDYAQLVLEMIDPDKIYFGNRVITRRESPGFKTLDLVLADERGIVVVDDKSSVWPHDKKNLLQIARYKYFGDQSCLLSECKKKIDESDEKGPLNTALRFLMDVHEEFFCDWSRKDLDSVDVRPLLKEISLRWKRKADGVV”, the protein production entry is on record as “failed”.

On to “MSLVKIVRIETFPLFHRLEKPYGDANGFKRYRTCYLIRIITESGIDGWGECVDWLPALHVGFTKRIIPFLLGKQAGSRLSLVRTIQKWHQRAASAVSMALTEIAAKAADCSVCELWGGRYREEIPVYASFQSYSDSPQWISRSVSNVEAQLKKGFEQIKVKIGGTSFKEDVRHINALQHTAGSSITMILDANQSYDAAAAFKWERYFSEWTNIGWLEEPLPFDQPQDYAMLRSRLSVPVAGGENMKGPAQYVPLLSQRCLDIIQPDVMHVNGIDEFRDCLQLARYFGVRASAHAYDGSLSRLYALFAQACLPPWSKMKNDHIEPIEWDVMENPFTDLVSLQPSKGMVHIPKGKGIGTEINMEIVNRYKWDGSAYEGHHHHHH”, for which the protein production entry is “not failed”. The entry for “MSLVNSLTHYEILRIPSDATQDEIKKAYRNRLLNTHPDKLSKSIHDTVSNVTINKIQDAYKILSNIKTRREYDRLILENYK” is “not failed”; for “MSLWQPLVLVLLVLGCCFAAPRQRQSTLVLFPGDLRTNLTDRQLAEEYLYRYGYTRVAEMRGESKSLGPALLLLQKQLSLPETGELDSATLKAMRTPRCGVPDLGRFQTFEGDLKWHHHNITYWIQNYSEDLPRAVIDDAFARAFALWSAVTPLTFTRVYSRDADIVIQFGVAEHGDGYPFDGKDGLLAHAFPPGPGIQGDAHFDDDELWSLGKGVVVPTRFGNADGAACHFPFIFEGRSYSACTTDGRSDGLPWCSTTANYDTDDRFGFCPSERLYTRDGNADGKPCQFPFIFQGQSYSACTTDGRSDGYRWCATTANYDRDKLFGFCPTRADSTVMGGNSAGELCVFPFTFLGKEYSTCTSEGRGDGRLWCATTSNFDSDKKWGFCPDQGYSLFLVAAHEFGHALGLDHSSVPEALMYPMYRFTEGPPLHKDDVNGIRHLYGPRPEPEPRPPTTTTPQPTAPPTVCPTGPPTVHPSERPTAGPTGPPSAGPTGPPTAGPSTATTVPLSPVDDACNVNIFDAIAEIGNQLYLFKDGKYWRFSEGRGSRPQGPFLIADKWPALPRKLDSVFEEPLSKKLFFFSGRQVWVYTGASVLGPRRLDKLGLGADVAQVTGALRSGRGKMLLFSGRRLWRFDVKAQMVDPRSASEVDRMFPGVPLDTHDVFQYREKAYFCQDRFYWRVSSRSELNQVDQVGYVTYDILQCPED” it is “not failed”. The entry for “MSMGKKHLNINSQNHQSTKDEDNNCKNSLFFGLFDDPESKRLRSGSMKRQYSDMGDSYHRVYDEQNDDVEYDGDGDGDEDEGSRMDMRVLMVLEYMRELYVGQLQLLKKMFPGAAKDEFLGFFNKIGDAVSQIKQDSRPPTKSMTMRRSLSAGSPRFTSKGVNLGPSDLRHERFKVTMVNAGGAAGSAGGGKGGSAAGQGQTKK” is “failed”; for “MSMHPFLASPQQKIVSRMSPRPPPSPVCLGDLTHPIIAGLISVIVNYGGTFILVFQAAKIAGLSPELTASWVWSISIGVGLTGLFLSLRYREPIITAWSTPAAAFLVTALATTPYAEAIGAYMISAAAFVVLGLSGYFEKVIRLIPPGIASGLLAGILLQFGIGAFGGASVDPWLVGLLIAAYVALKRFSARYAVVGILLLGLAFLLTQGRVDLSGLKLVFAAPVFSMPEFSLNALLSVALPLFLITLTGQYMPGMLVLRNDGFKTSANPIVTVTGLGSLIMAPFGSHAFNIAAITAAIATGREAHEDPSKRWIAGIAAGCFYVLVGVFGVTLAAVFMAFPATFITTLAGLALLGTIGGSLAGAMADPTSREAALITFLASAANIKLLGIGGAFWGLLIGGLAYVVLNGPMPYRATTDHRVTEAAAK” it is “failed”; for “MSMKGISSAESDKLSRRISLTHKRNSEELDVFEAAVYFGYNEASSGDHGHTQKYGYNAAREENPRRWGILGGGRRISLDLPIRCSEQVYHLQQDHHEKHEVTTIKERLGNVRHKQPSSPGGKIASFLNSLFHQAGSKKNKSKSKSKTKPTDPEVEEEIPGGGWMRRRRRSSISHFFSSSRSTSTTTTTTASSSSKSLISSSSSGFRTPPPYLNTPTKNYKQFLNYTSATKQVGEEETKTNKEYSWLDEKLKVMESLSENQRIWSDDEDIDDDRRIKREGEDDGMESDSSSDLFELQNYELSRGGLPVYETTNVANINKTHI” it is “failed”. On to “MSMNNSKQLVSPAAALLSNTTCQTENRLSVFFSVIFMTVGILSNSLAIAILMKAYQRFRQKSKASFLLLASGLVITDFFGHLINGAIAVFVYASDKEWIRFDQSNVLCSIFGICMVFSGLCPLLLGSVMAIERCIGVTKPIFHSTKITSKHVKMMLSGVCLFAVFIALLPILGHRDYKIQASRTWCFYNTEDIKDWEDRFYLLLFSFLGLLALGVSLLCNAITGITLLRVKFKSQQHRQGRSHHLEMVIQLLAIMCVSCICWSPFLGYRIILNGKEKYKVYEEQSDFLHRLQWPTLE”, for which the protein production entry is recorded as “failed”. Consider “MSMSTSTEVIAHHWAFAIFLIVAIGLCCLMLVGGWFLGGRARARSKNVPFESGIDSVGSARLRLSAKFYLVAMFFVIFDVEALYLFAWSTSIRESGWVGFVEAAIFIFVLLAGLVYLVRIGALDWTPARSRRERMNPETNSIANRQR”, for which the protein production result is “failed”. The entry for “MSMVLSFLKKFVENHVMSRHTVAVTLFLTDMAVILGTAIGVGLLRHAFDGYLDPTHYLRLLPFLLLFPAASFAMGLYQSVPLPPPCELKRLSLATCCTYLAIAIFIFFTRGGELYSRLTFALAGLVSLVAVPVARHLVRQRMARHRGWAAPALLFGKPHHVQPLAHILLSSPSLGLEPVAIVSAEHSTCHDFGCLPAFDAETTRQYAAGHPEAYAIVVMESYDEADRAHLVEHLSRLFCSVILLRSSTMSTGNIWLSPIEIGGLPGLMVRQNLLDPRRLTVKRTLDLIATTLALPLILPVMAVIALCIRLETPGPALFTQRRIGRDGYHFDILKFRTMYNDADTRLAECLEQSPELDAEWRRDHKLRCDPRVTRVGAFLRKTSLDELPQLWNVLRGDMSLVGPRPIVDSEVQRYDAAFATYTRVRPGITGLWQVSGRNNLSYPERVQRDMYYISNWSVWFDIWIIARTIPVVLHRDGAY” is “failed”; for “MSNALATLASPADDIAFYEERLRAAMLTGDLKGLETLLADDLAFVDHTGCVKTKQTHLEPYRAGLLKLSRLDLSDAVVRAAGEDGRVVVVRAVTAGVYDGEAFTETLRFTRIWRRTQGPAGWKLVAGHCSVIL” it is “not failed”.

As for “MSNDSPQLPDFLLAGRYRLHRLIGAGGMGRVWEGVDELLDRPVAIKELTINEHLPPQEIEILRARMLREARSAAQLSHPSIITVFDVVEKDGFPWIVMELVHGKSLSEIIKQEGAISPERAANLGLQVAAALSVAHQRGIVHRDIKPGNVLVARGDRAVLTDFGIAYLEGSSRLTRTGSLLGSPSYLAPEQARGEPASPAADMWALGTTLYAALHGAPPFQRATPMATLTAVVVDEVPPPVKAGPLRPLLEQLLNKDPQKRPTVHEVVEELQRVVMSFPPQSSSASSTGTHTLQEEASPAPAEVSVAKPAADTSALPLSSPAEPGKRNSTLATVGLVALALCVVVAVITAVVLFVPAGGNSRADGEQPAAETSQSSEETGQAEEPEPTTSAEAAEQGVGEDDEDSEEEAEDDDYSGPPLVRHEDPTGFSLDVPEGWSVDRRGSSVFFRNPEGGYLQVDQTDSPNPDAKKDWEAQERGAAGRFSNYSLIDIRYSDHPSMERYVTASDWEFTFTINGQRMHAVNRGFHTEKKGYALFLVYPADGWEETGAPLLDRMSESFEPAA”, the protein production result is reported as “failed”. The entry for “MSNENKTIHDFELNLICDFFSNMERQGPGSPEVTLKALSFIDNLTEKSLIADIGCGTGGQTMVLAGHVTGQVTGLDFLSGFIDIFNRNARQSGLQNRVTGIVGSMDDLPFRNEELDLIWSEGAIYNIGFERGLNEWRKYLKKGGYLAVSECSWFTDERPAEINDFWMDAYPEIDTIPNQVAKIHKAGYLPVATFILPENCWTDHYFTPKVAAQKIFLTKYAGNKIAEEFSMLQSIEEELYHKYKEYYGYTFFIAKKIRLLEHHHHHH” is “not failed”. The entry for “MSNGNKSEKKTLILALVAGMCGDALLSWLTMSEVSFSIFPLIALVLAVQALYQEYLNNPVSEDIPLVGLACFFVGAFGHSAFIKAQYPEAGSNFFAIMVSMILLAWIGKKLGFMEKKTSAE” is “failed”; for “MSNLPFHQFCGTEGYVASRALQDVVNVAIALERPLLLKGEPGTGKTLLAYHIAKALGMEIILWNVKSTTKARDGLYTYDTVQRLNDARFGDGDVRDIRHYIKLGPLGRAFGSAERVVLLIDEVDKADIEFPNDLLFELDEMRFHVLETDEWVSAAHRPVVIVTSNSEKELPDAFLRRCVFHYIDFPDETQMRAIIDVHFPDLPAELMRSACKVFYGLREVPGLRKRPSTSELLDWIRVLLASGARLPEEETPALQSVPFLGALVKIQEDADILAHHASRSADVRTAGRRFFRLEHHHHHH” it is “failed”. The entry for “MSNNTKRVGSQTIELKSKPRIIATYSVVGPREGQGPLKEYFDKILQDDCNGCESFEKAESSLMITAIEGVIKKGNVKEEDVDYLFSGDLLNQLTSTNFVAREFKIPFFGVYGACSTMAESLSLSSMIMDGDFAKYAIASTSSHFSSAERQFRFPLEYGCQRKEYSQWTVTGSGAMLLGKSGDYPYVTHVTTGIVKDYGIKDADNMGAAMAPAAVDTIYKHFVDTGRKPEDYDVIATGDLGAVGKKLTEELLKEYGYDISKVYIDCGEKIFDNEKQGTFAGGSGCGCSAVVACGYLYRMLKEKKLKRVLLVSTGALLSSTSALQGESIPGIAHAVAIEYILEHHHHHH” is “not failed”; for “MSNVRIRQATTDDLIGIFEAHRNSVERLCTSEYSDQQIRMWLDGRSPETYREAVEKGSLWLAEGEQIEGFVELDGNEVSKLFIRGDVARRGLGSRLLEVALARLRASGASSAYLEATLTAEGFYAYHGFQKIGEGTFSRGNSPVSIEIIKMERPL” it is “failed”. On to “MSNVSSETVNLNNTSIVHMNMSNVTKLTASNYIMWSRQVHALLHGYGLTQYLDATKAAPAREITVNDVASVNPEYEAWSRQDQLIFSALIGTLSLTVQPTVSRAATSADVWATLAGTYAKPSRGHIKQLQHQIKQWKKDTRTIDEYVQGFINRFDQLALIGKIIDHEDQVDYILGGLPEDYKPIVDQMEGRDTPPNGCLTNSCDEDGCFIQMALNSV”, for which the protein production entry is reported as “failed”. The entry for “MSNVVVIAVVLIVASLTGHVSAQMDMSPSSGPSGAPDCMANLMNMTGCLSYVTVGEGGGAAKPDKTCCPALAGLVESSPQCLCYLLSGDMAAQLGIKIDKAKALKLPGVCGVITPDPSLCSLFGIPVGAPVAMGDEGASPAYAPGSMSGAESPGGFGSGPSASRGSDAPSSAPYSLFLNLIIFPLAFAFYIFC” is “failed”. For “MSPCGPLNLSLAGEATTCAAPWVPNTSAVPPSGASPALPIFSMTLGAVSNLLALALLAQAAGRLRRRRSAATFLLFVASLLATDLAGHVIPGALVLRLYTAGRAPAGGACHFLGGCMVFFGLCPLLLGCGMAVERCVGVTRPLLHAARVSVARARLALAAVAAVALAVALLPLARVGRYELQYPGTWCFIGLGPPGGWRQALLAGLFASLGLVALLAALVCNTLSGLALLRARWRRRSRRPPPASGPDSRRRWGAHGPRSASASSASSIASASTFFGGSRSSGSARRARAHDVEMVGQLVGIMVVSCICWSPMLVLVALAVGGWSSTSLQRPLFLAVRLASWNQILDPWVYILLRQAVLRQLLRLLPPRAGAKGGPAGLGLTPSAWEASSLRSSRHSGLSHF”, the protein production result was “failed”.
